Values joined by “and” are separate entries in the source; they are usually repeats but may differ in a detail not shown here. Identical values can stand only once.
Key:
FcRn = target: T1, FcRn; assay: SPR (BIAcore) at pH 6.0
T1 construct: also called neonatal Fc receptor

soluble human RGMc [1] = target: T2, soluble human RGMc (human, UniProt Q6ZVN8 36-400); assay: SPR; method not named in Example 2
T2 construct: also called huRGMc; soluble hRGMc
T2 sequence: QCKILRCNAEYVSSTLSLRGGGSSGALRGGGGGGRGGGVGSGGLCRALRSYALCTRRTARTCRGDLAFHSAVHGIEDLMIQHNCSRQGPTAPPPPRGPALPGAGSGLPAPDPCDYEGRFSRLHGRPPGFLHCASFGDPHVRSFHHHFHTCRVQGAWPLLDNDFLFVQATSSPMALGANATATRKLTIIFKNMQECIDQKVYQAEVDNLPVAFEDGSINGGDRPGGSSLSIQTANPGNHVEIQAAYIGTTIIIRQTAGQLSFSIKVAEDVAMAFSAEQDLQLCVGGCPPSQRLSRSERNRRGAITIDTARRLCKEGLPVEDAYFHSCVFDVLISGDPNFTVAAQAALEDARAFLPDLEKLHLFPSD

soluble human RGMa [2] = target: T3, soluble human RGMa (human, UniProt Q96B86 48-422, limits assumed); assay: SPR; method not named in Example 2
T3 construct: Soluble antigen in BIAcore; also called huRGMa; repulsive guidance molecule A
T3 sequence (looked up): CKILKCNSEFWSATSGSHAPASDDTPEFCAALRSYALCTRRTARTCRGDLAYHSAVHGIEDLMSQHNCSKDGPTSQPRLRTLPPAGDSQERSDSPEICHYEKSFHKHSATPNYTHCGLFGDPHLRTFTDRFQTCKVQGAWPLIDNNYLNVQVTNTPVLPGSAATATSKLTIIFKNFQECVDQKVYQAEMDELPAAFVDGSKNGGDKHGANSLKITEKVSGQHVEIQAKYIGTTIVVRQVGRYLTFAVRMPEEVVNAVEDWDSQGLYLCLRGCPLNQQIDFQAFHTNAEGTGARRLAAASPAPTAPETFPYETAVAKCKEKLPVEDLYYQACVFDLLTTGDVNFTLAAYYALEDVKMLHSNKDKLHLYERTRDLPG

soluble human RGMa [3] = target: T3, soluble human RGMa; assay: SPR (BIAcore);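 note: Anti-HJV antibodies tested for binding against soluble human RGMa by surface plasmon resonance on a BIAcore instrument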
Method: (§1) Binding affinities of the anti-HJV antibodies to soluble human RGMa, Rat RGMa and human RGMc were measured by BIAcore analysis.

[4] = target: T4, membrane-bound human RGMa (human, UniProt Q96B86 169-424); assay: cell-based or functional assay
T4 sequence (looked up): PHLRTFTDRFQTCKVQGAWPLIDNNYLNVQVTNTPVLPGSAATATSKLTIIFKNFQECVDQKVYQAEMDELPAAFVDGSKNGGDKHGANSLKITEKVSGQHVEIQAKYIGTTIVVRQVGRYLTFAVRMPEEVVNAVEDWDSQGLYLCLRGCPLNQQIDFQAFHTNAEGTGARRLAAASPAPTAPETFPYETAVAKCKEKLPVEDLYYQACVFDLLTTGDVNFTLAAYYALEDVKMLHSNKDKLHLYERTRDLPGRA

soluble human RGMc [5] = target: T2, soluble human RGMc; assay: SPR (BIAcore), soluble hRGMc; summary table
soluble human RGMc [6] = target: T2, soluble human RGMc; assay: SPR (BIAcore);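 note: Anti-HJV antibodies, binding affinity to soluble human RGMc measured by BIAcore surface plasmon resonance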
Method: as §1

soluble rat RGMa = target: T5, soluble rat RGMa (rat, UniProt D4A188 48-421); assay: SPR (BIAcore);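 note: binding kinetics and affinity of anti-HJV antibodies toward soluble rat RGMa, determined by SPR on a BIAcore instrument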
T5 construct: Soluble antigen in BIAcore
T5 sequence: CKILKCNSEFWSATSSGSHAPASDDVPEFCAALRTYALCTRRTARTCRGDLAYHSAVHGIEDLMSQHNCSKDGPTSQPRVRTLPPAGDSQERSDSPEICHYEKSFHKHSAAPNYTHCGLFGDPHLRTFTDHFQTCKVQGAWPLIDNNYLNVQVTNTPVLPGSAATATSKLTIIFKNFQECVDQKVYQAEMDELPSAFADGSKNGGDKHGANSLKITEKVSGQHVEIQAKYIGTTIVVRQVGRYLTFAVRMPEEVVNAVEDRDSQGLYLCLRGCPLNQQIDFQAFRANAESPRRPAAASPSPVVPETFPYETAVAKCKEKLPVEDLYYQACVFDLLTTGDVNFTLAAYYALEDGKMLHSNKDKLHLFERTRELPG
Method: as §1

[7] = target: T6, membrane-bound human RGMc (human, UniProt Q6ZVN8 36-400); assay: cell-based or functional assay
T6 sequence: T2 sequence

[8] = target: T4, membrane-bound human RGMa; assay: cell-based or functional assay; remark: listed apart in the source
[9] = target: T6, membrane-bound human RGMc; assay: cell-based or functional assay; remark: listed apart in the source
[10] = target: T4, membrane-bound human RGMa; assay: cell-based or functional assay; remark: listed apart in the source
[11] = target: T6, membrane-bound human RGMc; assay: cell-based or functional assay; remark: listed apart in the source

T1 sequence (P55899 24-297, chain 1 of 2): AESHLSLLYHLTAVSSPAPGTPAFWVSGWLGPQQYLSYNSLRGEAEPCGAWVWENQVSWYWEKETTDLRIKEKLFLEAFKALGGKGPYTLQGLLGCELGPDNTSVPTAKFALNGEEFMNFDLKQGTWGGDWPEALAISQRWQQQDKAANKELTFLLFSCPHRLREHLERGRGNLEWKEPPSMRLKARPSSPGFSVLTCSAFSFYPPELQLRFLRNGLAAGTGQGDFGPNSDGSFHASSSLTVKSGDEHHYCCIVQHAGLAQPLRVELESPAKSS
T1 sequence (P61769 21-119, chain 2 of 2, further chain): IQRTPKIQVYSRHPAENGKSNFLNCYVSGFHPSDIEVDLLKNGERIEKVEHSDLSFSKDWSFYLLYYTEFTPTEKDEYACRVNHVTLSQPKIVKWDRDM

B1: hHA-008-QL (antibody, human IgG1, kappa, L234A L235A)
heavy: EVQLVESGGGLVQPGGSLRLSCAASGFTFSNYGMNWVRQAPGKGLEWIGMIYYDSSEKHYADSVKGRFTISRDNSKNTLYLQMNSLRAEDTAVYYCAKGTTPDYWGQGTMVTVSSASTKGPSVFPLAPSSKSTSGGTAALGCLVKDYFPEPVTVSWNSGALTSGVHTFPAVLQSSGLYSLSSVVTVPSSSLGTQTYICNVNHKPSNTKVDKKVEPKSCDKTHTCPPCPAPEAAGGPSVFLFPPKPKDQLMISRTPEVTCVVVDVSHEDPEVKFNWYVDGVEVHNAKTKPREEQYNSTYRVVSVLTVLHQDWLNGKEYKCKVSNKALPAPIEKTISKAKGQPREPQVYTLPPSREEMTKNQVSLTCLVKGFYPSDIAVEWESNGQPENNYKTTPPVLDSDGSFFLYSKLTVDKSRWQQGNVFSCSVLHEALHNHYTQKSLSLSPGK
light: DVVLTQSPLSLPVTLGQPASISCRSSQSLEESDGYTFLHWFQQRPGQSPRLLIYEVSTRFSGVPDRFSGSGSGTDFTLKISRVEAEDVGVYYCFQATHDPLTFGQGTKLEIKRTVAAPSVFIFPPSDEQLKSGTASVVCLLNNFYPREAKVQWKVDNALQSGNSQESVTEQDSKDSTYSLSSTLTLSKADYEKHKVYACEVTHQGLSSPVTKSFNRGEC
notes: hHA-008 with T250Q and M428L (QL) in the Fc besides L234A, L235A; kappa; also called hHA-008-QL (hIgG1mut(LALA)/QL/k)
Kd (FcRn): 900 nM and 882 nM | Kd (soluble human RGMc [1]): 0.12 nM | koff (soluble human RGMc [1]): 0.00033 s⁻¹ | kon (soluble human RGMc [1]): 2.7e+06 M⁻¹ s⁻¹ | Kd (soluble human RGMa [2]): 0.077 nM | koff (soluble human RGMa [2]): 3.3e-05 s⁻¹ | kon (soluble human RGMa [2]): 430000 M⁻¹ s⁻¹

B2: hHA-011 (antibody, human IgG1, kappa, L234A L235A, V domains shown)
VH: EVQLVESGGGLVQPGGSLRLSCAASGFTFSNYGMNWVRQAPGKGLEWIGMIYYDSSEKHYADSVKGRFTISRDNSKNTLYLQMNSLRAEDTAVYYCAKGSTPDYWGQGTMVTVSS
VL: DVVLTQSPLSLPVTLGQPASISCRSSQSLEDSDGGTFLEWFQQRPGQSPRLLIYDVSSRFSGVPDRFSGSGSGTDFTLKISRVEAEDVGVYYCFQATHDPLSFGQGTKLEIKR
notes: hIgG1 L234A, L235A, kappa
Kd (soluble human RGMa [3]): 0.11 nM | koff (soluble human RGMa [3]): 9.9e-05 s⁻¹ | kon (soluble human RGMa [3]): 930000 M⁻¹ s⁻¹ | IC50 (nM), BMP reporter assay for RGMa [4]: 1.66 nM | Kd (soluble human RGMc [5]): 0.285 nM | koff (soluble human RGMc [5]): 0.0014 s⁻¹ | kon (soluble human RGMc [5]): 5.05e+06 M⁻¹ s⁻¹ | Kd (soluble human RGMc [6]): 0.285 nM | koff (soluble human RGMc [6]): 0.0014 s⁻¹ | kon (soluble human RGMc [6]): 5.05e+06 M⁻¹ s⁻¹ | Kd (soluble rat RGMa): 0.074 nM | koff (soluble rat RGMa): 5.2e-05 s⁻¹ | kon (soluble rat RGMa): 700000 M⁻¹ s⁻¹ | IC50 (nM), BMP reporter assay for RGMc (BRE-Luc, HEK293) [7]: 0.0554 nM | IC50 (read off the curve) [8]: ~2 nM | Potency on membrane hRGMc (RGMc/BMP reporter assay), IC50 [9]: 0.52 nM | Potency on membrane hRGMa (RGMa/BMP reporter assay), IC50 [10]: 1.7 nM | IC50 (read off the curve) [11]: ~0.5 nM
